Assay results reported in the supplement of paper PMC10065799, “High-throughput profiling of sequence recognition by tyrosine kinases and SH2 domains using bacterial peptide display” (eLife, 2023).

Tests used:
c-Src SH2 = assay: SH2 binding enrichment of the phosphorylated peptide, bacterial display (enrichment ratio); higher = better substrate or ligand; peptides without Tyr show the background
Grb2 SH2 = Grb2 SH2 (UniProt P62993); assay: as above
SHP2-C SH2 = assay: as above
EPHB2 = EPHB2 (UniProt P29323); assay: phosphorylation enrichment, bacterial display (enrichment ratio); higher = better substrate or ligand; peptides without Tyr show the background
c-Abl (mouse) = assay: as above
Hck = Hck (UniProt P08631); assay: as above
Jak2 = Jak2 (UniProt O60674); assay: as above
FGFR1 = FGFR1 (UniProt P11362); assay: as above
AncSZ = assay: as above
FGFR3 = FGFR3 (UniProt P22607); assay: as above
c-Src = assay: as above
Fes = Fes (UniProt P07332); assay: as above
EPHB1 = EPHB1 (UniProt P54762); assay: as above
Fyn = Fyn (UniProt P06241); assay: as above
Fer (mouse) = assay: as above
MERTK = MERTK (UniProt Q12866); assay: as above
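Wherever SH2 binding enrichment of the phosphorylated peptide, bacterial display is given: peptide library displayed on the E. coli surface as eCPX fusions, selected cells deep-sequenced, score is each peptide's frequency after selection divided by its frequency in the input.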
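Wherever phosphorylation enrichment, bacterial display is given: 11-residue human phosphosite peptides and single-mutation variants displayed on the E. coli surface, counted by deep sequencing, each peptide's frequency after selection divided by its frequency in the unselected input library; frequency after pTyr selection over input frequency; kinase dosed for 20-30% of maximal phosphorylation in three min.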

Sequence of EPHB1 (P54762 whole entry, looked up): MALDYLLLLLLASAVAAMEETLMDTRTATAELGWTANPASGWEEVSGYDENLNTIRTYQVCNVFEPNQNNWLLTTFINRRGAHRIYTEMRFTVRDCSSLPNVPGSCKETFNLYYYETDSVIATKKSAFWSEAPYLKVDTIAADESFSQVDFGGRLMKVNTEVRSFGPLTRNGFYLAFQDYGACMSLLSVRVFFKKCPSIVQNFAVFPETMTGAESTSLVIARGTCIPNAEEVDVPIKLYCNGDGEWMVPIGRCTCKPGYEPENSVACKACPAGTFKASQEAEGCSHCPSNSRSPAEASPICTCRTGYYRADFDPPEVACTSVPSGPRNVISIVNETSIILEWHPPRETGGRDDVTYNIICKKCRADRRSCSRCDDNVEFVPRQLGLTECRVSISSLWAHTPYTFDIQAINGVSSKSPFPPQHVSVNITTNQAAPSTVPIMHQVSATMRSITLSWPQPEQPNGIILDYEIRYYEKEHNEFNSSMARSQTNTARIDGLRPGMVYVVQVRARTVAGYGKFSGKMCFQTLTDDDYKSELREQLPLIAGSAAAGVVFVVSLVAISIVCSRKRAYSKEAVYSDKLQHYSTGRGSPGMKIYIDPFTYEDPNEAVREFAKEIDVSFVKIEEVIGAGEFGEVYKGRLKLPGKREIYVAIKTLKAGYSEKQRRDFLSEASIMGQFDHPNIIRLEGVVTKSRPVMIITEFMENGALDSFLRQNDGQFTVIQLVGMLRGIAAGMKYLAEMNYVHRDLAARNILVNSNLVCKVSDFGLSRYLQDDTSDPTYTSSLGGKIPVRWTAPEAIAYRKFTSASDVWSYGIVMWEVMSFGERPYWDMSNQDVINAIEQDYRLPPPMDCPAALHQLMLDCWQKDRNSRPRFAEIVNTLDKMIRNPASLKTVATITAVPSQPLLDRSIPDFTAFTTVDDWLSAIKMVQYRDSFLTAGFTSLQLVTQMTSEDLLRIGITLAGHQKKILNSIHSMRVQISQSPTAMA
Sequence of Fyn (P06241 whole entry, looked up): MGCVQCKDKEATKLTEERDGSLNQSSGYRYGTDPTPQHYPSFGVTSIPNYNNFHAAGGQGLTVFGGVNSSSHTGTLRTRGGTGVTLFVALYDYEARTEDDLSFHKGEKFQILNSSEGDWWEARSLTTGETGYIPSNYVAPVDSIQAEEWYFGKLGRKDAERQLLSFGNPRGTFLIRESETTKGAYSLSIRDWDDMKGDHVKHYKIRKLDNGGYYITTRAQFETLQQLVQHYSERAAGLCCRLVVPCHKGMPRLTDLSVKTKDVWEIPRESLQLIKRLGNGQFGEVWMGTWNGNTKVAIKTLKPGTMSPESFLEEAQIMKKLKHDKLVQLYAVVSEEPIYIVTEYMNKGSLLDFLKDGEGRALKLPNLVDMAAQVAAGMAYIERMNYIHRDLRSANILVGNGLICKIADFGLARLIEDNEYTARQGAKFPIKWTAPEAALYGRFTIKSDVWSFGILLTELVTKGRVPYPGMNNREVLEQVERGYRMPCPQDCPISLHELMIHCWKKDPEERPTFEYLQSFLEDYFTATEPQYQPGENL
Sequence of FGFR3 (P22607 whole entry, looked up): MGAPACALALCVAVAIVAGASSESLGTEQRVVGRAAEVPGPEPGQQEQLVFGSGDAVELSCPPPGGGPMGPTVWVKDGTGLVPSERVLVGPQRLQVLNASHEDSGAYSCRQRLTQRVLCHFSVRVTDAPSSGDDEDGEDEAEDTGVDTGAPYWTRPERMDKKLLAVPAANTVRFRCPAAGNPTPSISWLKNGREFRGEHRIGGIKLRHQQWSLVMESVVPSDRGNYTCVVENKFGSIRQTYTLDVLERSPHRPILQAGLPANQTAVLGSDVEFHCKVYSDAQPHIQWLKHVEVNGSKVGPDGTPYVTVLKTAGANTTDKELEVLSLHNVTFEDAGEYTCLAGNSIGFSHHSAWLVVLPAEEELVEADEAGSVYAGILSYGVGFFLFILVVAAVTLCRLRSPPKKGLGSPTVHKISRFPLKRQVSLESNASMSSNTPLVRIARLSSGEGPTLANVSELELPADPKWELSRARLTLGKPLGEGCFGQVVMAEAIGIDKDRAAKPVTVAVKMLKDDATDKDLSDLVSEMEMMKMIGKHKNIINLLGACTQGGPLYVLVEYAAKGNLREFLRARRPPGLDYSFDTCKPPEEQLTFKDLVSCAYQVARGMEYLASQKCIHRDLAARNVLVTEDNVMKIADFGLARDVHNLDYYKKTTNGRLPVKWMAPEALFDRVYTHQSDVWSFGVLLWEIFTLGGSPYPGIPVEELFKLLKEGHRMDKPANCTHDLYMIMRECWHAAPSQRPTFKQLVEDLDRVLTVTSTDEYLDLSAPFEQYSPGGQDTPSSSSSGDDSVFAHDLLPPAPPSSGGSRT
Sequence of EPHB2 (P29323 whole entry, looked up): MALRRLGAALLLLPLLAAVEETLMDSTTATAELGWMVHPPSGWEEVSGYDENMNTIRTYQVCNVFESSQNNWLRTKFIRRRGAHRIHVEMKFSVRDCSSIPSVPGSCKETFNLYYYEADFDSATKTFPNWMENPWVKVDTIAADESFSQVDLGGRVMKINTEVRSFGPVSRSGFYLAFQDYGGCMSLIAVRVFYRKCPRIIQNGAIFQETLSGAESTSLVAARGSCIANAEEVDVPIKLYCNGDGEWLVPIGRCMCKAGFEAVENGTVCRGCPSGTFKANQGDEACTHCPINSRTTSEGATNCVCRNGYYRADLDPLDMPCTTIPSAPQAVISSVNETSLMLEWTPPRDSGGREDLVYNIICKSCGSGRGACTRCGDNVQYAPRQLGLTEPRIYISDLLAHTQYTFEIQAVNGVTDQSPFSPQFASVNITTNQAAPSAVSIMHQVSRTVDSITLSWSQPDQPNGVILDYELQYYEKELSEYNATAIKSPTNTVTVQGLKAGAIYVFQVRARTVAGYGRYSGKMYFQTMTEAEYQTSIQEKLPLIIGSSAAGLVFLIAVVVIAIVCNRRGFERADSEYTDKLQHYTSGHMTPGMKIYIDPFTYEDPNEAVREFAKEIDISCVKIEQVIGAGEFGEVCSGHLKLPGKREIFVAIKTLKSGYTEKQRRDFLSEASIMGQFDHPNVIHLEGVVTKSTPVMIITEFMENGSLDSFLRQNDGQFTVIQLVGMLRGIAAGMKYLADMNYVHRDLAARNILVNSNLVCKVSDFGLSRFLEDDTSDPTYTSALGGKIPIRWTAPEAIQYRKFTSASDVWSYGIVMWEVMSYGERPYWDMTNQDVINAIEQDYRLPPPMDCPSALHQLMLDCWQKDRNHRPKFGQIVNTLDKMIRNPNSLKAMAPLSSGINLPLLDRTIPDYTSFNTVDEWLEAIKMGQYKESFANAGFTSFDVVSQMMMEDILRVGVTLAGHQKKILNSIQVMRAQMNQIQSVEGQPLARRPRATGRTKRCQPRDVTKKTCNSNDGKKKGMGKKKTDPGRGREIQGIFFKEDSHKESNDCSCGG
Sequence of Hck (P08631 whole entry, looked up): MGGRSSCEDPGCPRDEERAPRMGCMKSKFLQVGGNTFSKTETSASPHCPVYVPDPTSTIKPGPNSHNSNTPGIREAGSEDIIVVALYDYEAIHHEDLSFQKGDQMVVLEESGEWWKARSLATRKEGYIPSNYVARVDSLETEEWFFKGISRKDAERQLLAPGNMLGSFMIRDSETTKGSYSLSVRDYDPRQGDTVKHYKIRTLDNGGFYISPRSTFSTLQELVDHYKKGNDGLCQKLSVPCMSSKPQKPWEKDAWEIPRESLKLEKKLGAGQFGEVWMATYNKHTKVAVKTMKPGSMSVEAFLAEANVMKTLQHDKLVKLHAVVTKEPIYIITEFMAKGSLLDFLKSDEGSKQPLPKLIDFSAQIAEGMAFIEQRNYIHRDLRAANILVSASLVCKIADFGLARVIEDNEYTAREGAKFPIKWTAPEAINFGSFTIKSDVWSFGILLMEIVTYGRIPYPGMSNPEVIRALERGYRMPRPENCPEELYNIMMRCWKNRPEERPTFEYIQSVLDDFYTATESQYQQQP
Sequence of Jak2 (O60674 whole entry, looked up): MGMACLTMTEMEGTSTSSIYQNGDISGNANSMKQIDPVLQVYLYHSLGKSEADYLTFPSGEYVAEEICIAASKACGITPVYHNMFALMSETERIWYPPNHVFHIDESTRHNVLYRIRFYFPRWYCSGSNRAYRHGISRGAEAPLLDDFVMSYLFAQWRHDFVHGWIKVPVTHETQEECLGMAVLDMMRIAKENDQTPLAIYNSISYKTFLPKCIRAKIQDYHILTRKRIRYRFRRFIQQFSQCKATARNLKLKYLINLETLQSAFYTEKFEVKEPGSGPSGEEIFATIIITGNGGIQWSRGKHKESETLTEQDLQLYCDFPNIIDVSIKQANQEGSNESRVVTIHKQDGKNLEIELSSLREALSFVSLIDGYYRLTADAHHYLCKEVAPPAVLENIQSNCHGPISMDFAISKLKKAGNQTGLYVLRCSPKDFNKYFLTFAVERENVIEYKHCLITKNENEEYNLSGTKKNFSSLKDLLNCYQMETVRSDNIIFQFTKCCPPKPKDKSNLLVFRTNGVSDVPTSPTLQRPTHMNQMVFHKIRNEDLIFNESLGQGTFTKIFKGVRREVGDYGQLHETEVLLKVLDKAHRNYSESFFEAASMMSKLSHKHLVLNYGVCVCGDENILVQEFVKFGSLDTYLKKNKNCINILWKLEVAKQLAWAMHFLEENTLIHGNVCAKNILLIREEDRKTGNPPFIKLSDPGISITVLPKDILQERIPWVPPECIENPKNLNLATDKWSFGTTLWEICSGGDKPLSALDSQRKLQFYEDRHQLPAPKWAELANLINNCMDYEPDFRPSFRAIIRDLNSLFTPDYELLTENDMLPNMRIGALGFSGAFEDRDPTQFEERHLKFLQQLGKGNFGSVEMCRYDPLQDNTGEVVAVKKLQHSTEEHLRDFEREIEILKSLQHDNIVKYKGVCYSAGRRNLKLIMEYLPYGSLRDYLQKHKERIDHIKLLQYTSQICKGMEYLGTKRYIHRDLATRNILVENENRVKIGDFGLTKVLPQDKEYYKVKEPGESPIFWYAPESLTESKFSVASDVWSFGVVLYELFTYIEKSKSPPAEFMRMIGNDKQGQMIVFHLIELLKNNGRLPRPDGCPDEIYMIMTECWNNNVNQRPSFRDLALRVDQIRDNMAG

SH2 binding enrichment (c-Src SH2) | SH2 binding enrichment (Grb2 SH2) | SH2 binding enrichment (SHP2-C SH2) | Sequence | phosphorylation enrichment (EPHB2) | phosphorylation enrichment (c-Abl (mouse)) | phosphorylation enrichment (Hck) | phosphorylation enrichment (Jak2) | phosphorylation enrichment (FGFR1) | phosphorylation enrichment (AncSZ) | phosphorylation enrichment (FGFR3) | phosphorylation enrichment (c-Src) | phosphorylation enrichment (Fes) | phosphorylation enrichment (EPHB1) | phosphorylation enrichment (Fyn) | phosphorylation enrichment (Fer (mouse)) | phosphorylation enrichment (MERTK)
5.66 | 1.05 | 1.86 | CTNIHYNYMCN [TP53_Y234_T231N] | 0.537 | 1.62 | 0.437 | 0.799 | 0.468 | 0.754 | 0.62 | 0.408 | 0.82 | 0.734 | 0.464 | 0.522 | 0.418
0.706 | 0.855 | 0.645 | CPYNLYAEQFS [HGD_Y40_L44F] | 3.18 | 0.72 | 3 | 0.989 | 0.877 | 1.46 | 0.973 | 6.06 | 1.16 | 4.18 | 3.86 | 2.09 | 3.9
0.388 | 0.833 | 0.552 | YNDSAYNQQLI [ZPLD1_Y198_T197A] | 0.527 | 0.634 | 0.48 | 0.696 | 0.499 | 0.987 | 0.68 | 0.418 | 0.93 | 0.455 | 0.49 | 0.46 | 0.388
0.608 | 0.878 | 0.655 | GLSSAYGDLTS [KRT8_Y427_G429D] | 0.429 | 0.536 | 0.535 | 0.535 | 0.506 | 0.718 | 0.486 | 0.464 | 0.659 | 0.56 | 0.454 | 0.479 | 0.413
0.562 | 0.898 | 0.675 | ACCLLYCGDVV [TUBA4A_Y319_R320C] | 7.84 | 1.29 | 1.71 | 1.09 | 1.13 | 1.54 | 1.23 | 4.33 | 1.3 | 9.94 | 1.1 | 3.7 | 4.54
0.657 | 0.937 | 0.88 | LNWIFYKDQTG [RS1_Y166_YF] | 0.306 | 0.843 | 0.239 | 1.29 | 0.27 | 0.977 | 0.932 | 0.567 | 1.72 | 0.611 | 0.48 | 0.54 | 0.468
0.515 | 0.933 | 0.553 | CEQELYSQLVF [WAS_Y102_W97C_YF] | 2.2 | 0.987 | 6.76 | 1.24 | 1.66 | 1.59 | 1.79 | 5.87 | 1.44 | 1.84 | 6.89 | 10.7 | 6.07
0.476 | 0.74 | 0.758 | STSKTYVISRT [RBBP6_Y87] | 0.426 | 0.423 | 0.465 | 0.527 | 0.503 | 0.628 | 0.498 | 0.444 | 0.497 | 0.387 | 0.416 | 0.396 | 0.417
0.504 | 0.792 | 0.853 | KDAGDYKFKAK [LRIT3_Y326_C328Y_YF] | 0.259 | 0.338 | 0.38 | 0.392 | 0.421 | 0.406 | 0.362 | 0.305 | 0.613 | 0.345 | 0.322 | 0.278 | 0.443

Continued, sequence first:

Sequence | SH2 binding enrichment (c-Src SH2) | SH2 binding enrichment (Grb2 SH2) | SH2 binding enrichment (SHP2-C SH2) | phosphorylation enrichment (EPHB2) | phosphorylation enrichment (c-Abl (mouse)) | phosphorylation enrichment (Hck) | phosphorylation enrichment (Jak2) | phosphorylation enrichment (FGFR1) | phosphorylation enrichment (AncSZ) | phosphorylation enrichment (FGFR3) | phosphorylation enrichment (c-Src) | phosphorylation enrichment (Fes) | phosphorylation enrichment (EPHB1) | phosphorylation enrichment (Fyn) | phosphorylation enrichment (Fer (mouse)) | phosphorylation enrichment (MERTK)
VTQEPYELFCE [CBL_Y368_Q367P_YF] | 0.719 | 1.01 | 0.944 | 0.687 | 0.817 | 0.569 | 0.998 | 0.649 | 1.58 | 0.938 | 1.19 | 1.32 | 0.74 | 0.793 | 1.15 | 0.592
DLAGRYYALRS [CKB_Y173_K177R] | 1.87 | 0.775 | 0.9 | 0.439 | 0.544 | 0.681 | 1.65 | 0.963 | 0.729 | 0.811 | 0.487 | 0.649 | 0.352 | 0.484 | 0.477 | 2.19
RKLVDYNSARH [BIN1_Y150_D151N] | 0.686 | 0.972 | 0.814 | 0.338 | 0.548 | 0.383 | 0.425 | 0.376 | 0.559 | 0.326 | 0.378 | 0.568 | 0.311 | 0.389 | 0.419 | 0.393
DHYNQYEQQKM [CHD7_Y75] | 0.472 | 0.56 | 0.824 | 0.402 | 0.445 | 0.434 | 0.782 | 0.438 | 0.844 | 0.524 | 0.478 | 0.728 | 0.444 | 0.639 | 0.451 | 0.359
IKNFKYGIEEH [GJA1_Y137_K134N] | 0.416 | 0.865 | 0.456 | 0.508 | 0.38 | 0.414 | 0.682 | 0.388 | 0.621 | 0.549 | 0.368 | 0.715 | 0.351 | 0.335 | 0.311 | 0.383
VILENYGADID [DNAH5_Y596_L591V] | 0.454 | 0.739 | 0.54 | 0.589 | 0.674 | 0.515 | 1.13 | 0.557 | 1.06 | 0.719 | 0.5 | 1.11 | 0.555 | 0.653 | 0.492 | 0.641
